± gives the uncertainty stated by the source.
Experiment: protein stability index of a GFP-peptide fusion (yeast GPS) (PSI 1-4); higher = more stable; sorted into four equal gates, so the index is relative within each strain
How it was run: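 Yeast carrying a pooled library were grown to mid-log phase in leucine-free medium. Each library plasmid expresses Cherry and has a tiled 17-residue yeast protein peptide fused downstream of GFP. Cells were sorted into four equal gates by GFP/Cherry ratio, and plasmids from each gate were PCR-amplified, Illumina-sequenced and assigned to strains by barcode. Summing, across gates, the read frequency times the gate number gave each peptide's protein stability index.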

| Sequence | protein stability index (pdr5∆) | protein stability index (san1∆) | protein stability index (doa10∆) | protein stability index (ubr1∆) |
| --- | --- | --- | --- | --- |
| TNTFEGSGNNNEIESRQ [SNU114] | 3.48 ± 0.17 | 3.25 ± 0.11 | – | – |
| TKQIQSVRIDGRKVLQK [SIR4] | 2.48 ± 0.055 | 2.03 ± 0.069 | 2.32 ± 0.06 | 2.02 ± 0.04 |
| LHYLKKFKHIDDKYGRK [SRP72] | 2.88 ± 0.057 | 3.07 ± 0.055 | 2.91 ± 0.061 | 2.85 ± 0.041 |
| YGIVAMAATATDKIGRS [FAS2] | 1.82 ± 0.06 | 1.65 ± 0.092 | 1.64 ± 0.063 | 2.26 ± 0.051 |
| QLASQLVDLKKELAELK [RPL35A] | 3.68 ± 0.27 | 3.21 ± 0.066 | 3.37 ± 0.26 | 3.35 ± 0.078 |
| LDVDPAKRIRVSHHATT [RPB2] | 3.04 ± 0.06 | 2.79 ± 0.082 | 3.02 ± 0.06 | 3 ± 0.044 |
| SFIISSLDTLELESITE [NUT1] | 1.64 ± 0.042 | 1.78 ± 0.083 | 1.74 ± 0.075 | 1.78 ± 0.04 |
| SLFSKIKTFFTQKDSAR [YAR002W/NUP60] | 2.84 ± 0.083 | 2.42 ± 0.09 | 2.21 ± 0.091 | 2.68 ± 0.087 |
| NEVCLEKENRFEIVDRE [SMC4] | 2.92 ± 0.11 | 3.1 ± 0.1 | 2.62 ± 0.089 | 3.3 ± 0.082 |
| EETYEEKPQFKDGETTD [RPO26] | 2.98 ± 0.28 | 3.47 ± 0.19 | 3.24 ± 0.23 | 3.34 ± 0.14 |
| QVVGPFHTSFSAVVGPN [SMC4] | 2.39 ± 0.055 | 2.78 ± 0.055 | 2.53 ± 0.063 | 2.73 ± 0.037 |
| PAFSFGISNGSESKDSD [YLR335W/NUP2] | 3.05 ± 0.11 | 3.12 ± 0.063 | 3.23 ± 0.093 | 3.08 ± 0.088 |
| EDETLRRIKEAEENLKK [YIL149C/MLP2] | 3.54 ± 0.15 | 3.26 ± 0.076 | 3.54 ± 0.23 | 3.69 ± 0.13 |
| EYNRLKVQDAIEEEIFD [LIN1] | 2.31 ± 0.05 | 2.85 ± 0.057 | 2.83 ± 0.057 | 2.93 ± 0.055 |
| ARVKAFDRHCNMVLENV [SMD2] | 2.3 ± 0.087 | 1.39 ± 0.21 | 1.53 ± 0.091 | 1.87 ± 0.085 |
| RTAPKSDNVYLKLLVKL [RPL18A] | 2.8 ± 0.093 | 2.7 ± 0.089 | 2.6 ± 0.092 | 3.03 ± 0.068 |
| DNPDQGISDMCRLFFTE [YCS4] | 3.63 ± 0.15 | 3.03 ± 0.14 | 3.37 ± 0.14 | 3.04 ± 0.15 |
| IVLSKAASALDEKEKQL [SIR4] | 3.03 ± 0.11 | 3.04 ± 0.17 | 3.35 ± 0.1 | 3.57 ± 0.21 |
| VNETEAILYTKPGHVLQ [YGR119C/NUP57] | 3.12 ± 0.13 | 2.75 ± 0.13 | 3 ± 0.15 | 3.66 ± 0.21 |
| KETAPVIDTLAAGYGKI [RPL28] | 2.71 ± 0.12 | 2.13 ± 0.21 | 1.96 ± 0.088 | 2.53 ± 0.083 |
| LCLEKLMCLSSKYCEKS [YCS4] | 2.34 ± 0.087 | 2.27 ± 0.18 | 1.55 ± 0.051 | 1.92 ± 0.059 |
| PWVVYLQILAMLLLNIF [YMR129W/POM152] | 1.96 ± 0.072 | 1.18 ± 0.16 | 1.19 ± 0.1 | 1.16 ± 0.08 |

From the supplement of paper PMC9732359
